Target: syua_human SNCA (UniProt P37840)

Leucine-rich repeat serine/threonine-protein kinase 2 (Homo sapiens), Q5S007 G2019S
effect of a mutation on the interaction: increasing interaction

Source: IntAct's records for PubMed 23183827
